Experiment [1] has as its target T1, human C1s mutant M9 (K336G, D343Y & E351A) (human, UniProt P09871 16-688).
T1 construct: The entry is the mutant itself
T1 sequence: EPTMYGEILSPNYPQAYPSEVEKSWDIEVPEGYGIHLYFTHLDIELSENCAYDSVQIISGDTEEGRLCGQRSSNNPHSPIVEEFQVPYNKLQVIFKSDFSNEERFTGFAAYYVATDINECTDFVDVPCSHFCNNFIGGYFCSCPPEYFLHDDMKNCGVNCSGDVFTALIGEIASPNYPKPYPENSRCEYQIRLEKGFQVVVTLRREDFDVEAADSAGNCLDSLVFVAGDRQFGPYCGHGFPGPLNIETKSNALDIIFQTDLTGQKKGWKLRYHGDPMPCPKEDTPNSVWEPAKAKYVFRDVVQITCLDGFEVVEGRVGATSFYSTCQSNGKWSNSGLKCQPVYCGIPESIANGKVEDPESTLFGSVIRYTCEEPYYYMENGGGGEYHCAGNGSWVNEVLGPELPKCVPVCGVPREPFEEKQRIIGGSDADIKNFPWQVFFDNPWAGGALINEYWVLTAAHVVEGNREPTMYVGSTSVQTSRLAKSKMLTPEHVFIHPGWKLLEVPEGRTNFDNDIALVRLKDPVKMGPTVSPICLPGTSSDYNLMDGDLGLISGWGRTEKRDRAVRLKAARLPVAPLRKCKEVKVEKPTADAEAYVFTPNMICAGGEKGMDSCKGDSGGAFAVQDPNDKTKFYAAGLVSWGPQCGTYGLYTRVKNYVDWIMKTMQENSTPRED
The experiment can be described thus: ELISA, plate coated with human C1s mutant M9: K336G, D343Y, E351A, OD450nm; the curve reaches only OD450 about 0.7 at 1000 ng/ml. On the procedure:
(§1) ELISA was carried out by first coating 96-well plates with 200 ng/well of full-length or truncated C1s proteins overnight. The next morning, plates were blocked with SuperBlock T20 blocking buffer (Thermo Scientific 37536) for 1 h with gentle shaking. Then, various concentrations of anti-C1s antibodies diluted in SuperBlock T20 blocking buffer were added to the plates and incubated for 1 h with gentle shaking. Mouse IgG (Sigma-Aldrich 15381) and human IgG1 (BioXCell BP0297) were used as negative controls. The plates were washed before incubating with HRP conjugated secondary antibodies diluted in SuperBlock T20 blocking buffer (goat anti-mouse IgG (H+L) cross-adsorbed secondary antibody HRP (Invitrogen G-21040) or goat anti-human IgG antibody, HRP conjugate (Millipore AP309P)) for 1 h with gentle shaking. At last, the plates were washed and color developed with ELISA liquid HRP substrate (Sigma-Aldrich), followed by stopping the reaction with addition of 1M H₂SO₄ in the same volume as the ELISA liquid substrate. Bound antibody was measured by absorbance at OD₄₅₀ₙₘ.
(§2) Binding of anti-C1s antibodies to mutants M1-M20 of human C1s was measured by ELISA as described in Example 4, and results are shown in FIGS. 6B-6U. […]

Experiment [2] concerns the target T2, human C1s deletion mutant 3 (NHCΔ33) (human, UniProt P09871 16-404).
T2 construct: C-terminal 6xHis tag; also called human C1s (NHCΔ33); C1s (NHCΔ33)
T2 sequence: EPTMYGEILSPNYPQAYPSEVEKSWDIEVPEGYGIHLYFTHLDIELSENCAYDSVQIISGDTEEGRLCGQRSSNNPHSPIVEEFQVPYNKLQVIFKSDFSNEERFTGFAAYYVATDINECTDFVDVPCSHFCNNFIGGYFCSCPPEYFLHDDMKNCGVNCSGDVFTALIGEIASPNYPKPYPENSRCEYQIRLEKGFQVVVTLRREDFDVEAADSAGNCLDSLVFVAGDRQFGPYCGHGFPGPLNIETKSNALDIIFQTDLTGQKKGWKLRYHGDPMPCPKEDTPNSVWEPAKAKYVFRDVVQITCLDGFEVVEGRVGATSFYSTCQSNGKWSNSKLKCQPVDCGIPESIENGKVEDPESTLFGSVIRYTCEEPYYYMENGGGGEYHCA
The experiment can be described thus: ELISA, C1s fragment coated on plate; hz2-8(H1L2 G80A/T82A), second of the two values. Here is the method:
as §1
Binding of various anti-C1s antibodies to human C1s (NHCΔ33) (SEQ ID NO: 111) was carried out by ELISA as described in Example 4, and results are shown in FIG. 6A.
Background: An ELISA detects its analyte on a solid surface through an enzyme-linked reagent.

The target of experiment [3] is T1, human C1s mutant M9 (K336G, D343Y & …). The experiment can be described thus: ELISA, plate coated with human C1s mutant M9: K336G, D343Y, E351A, OD450nm. On the procedure:
as §1, §2

B1: Anti-C1s antibody hz2-7(H1L2) (antibody, V domains shown)
VH: EVQLLESGGGLVQPGGSLRLSCAASGFTFSNYFMNWVRQAPGKGLEWVSEIRLKFTNYATHYADSVKGRFTISRDDSKSTLYLQMNSLRAEDTAVYYCTRDYGSRNGYFDYWGQGTLVTVSS
VL: DIVMTQTPLSLPVTPGEPASISCRSSKSLLHSNGNTFLYWFLQKPGQSPQLLIYRMSNLASGVPDRFSGSGSGTDFTLKISRVEAEDVGVYYCMQHLEYPYTFGGGTKLEIKR
notes: Humanized, human IgG1 / kappa; also called hz2-7(1L2)
A word on the EC50: it is the concentration giving half of the maximal effect. Low readings indicate greater potency, high ones weaker potency. Molecule B1 registered an EC50 in experiment [1] of 0.013 µg/mL.

B2: Anti-C1s antibody hz2-8 (H1L2 G80A/T82A) (antibody, V domains shown)
VH: QVQLVQSGAEVKKPGASVKVSCKASGFNIKEYYMHWVRQAPEQGLEWMGWIDPENADAIYAQKFQGRVTITADTSTNTAYMELSSLRSEDTAVYYCARSRLFFAYWGQGTLVTVSS
VL: DIQMTQSPKSLSASVGDRVTITCRASQDVRTALDWYQQKPGQSPKLLIYSASYRYSGVPSRFSGSGSGTDFTLTISSLQPEDFATYYCQQQYTTPYTFGQGTKLEIKR
notes: Humanized variant with G80A and T82A in HC CDR2 (already in the entry), human IgG1 / kappa
Take B2: the EC50 in experiment [2] turned out to be 0.015 µg/mL. The binding result in experiment [3] is reported as “no binding (tested: 1000 ng/ml (Log 3))”.

The record behind these values is US20230051715A1 (MABWELL THERAPEUTICS, published 2023).
